Experimental data from US20150351390A1, “COMPOSITIONS AND METHODS FOR AUXIN-ANALOG CONJUGATION” (PIONEER HI-BRED INTERNATIONAL, INC., priority 2012, published 2015).

B1: AIGH3-7 (protein, listed as Arabidopsis lyrata)
chain: VLEDLTSNVTQLQDNEILTLNANTNYLQSFFRGRFDKEIFKKNVPVVTYDDPSNVISAQPITGFVLSSGTSGGAQKMMPWNEKYLDSCMIFGCINVKNVEKGKAMMFYFTKLESITPSGLPARVASSSYLKSNYFKNRPSNWYYTYTSPDELTLCPDNKQNLYCHLLCGLVQRNEVTRMGSIFASVMKELWSNIRSGQLSEWITDIVANTIEKICNQKCWKGIVTRLWPKAKYIETIVTGSMVQYVPTLNYYSNDMLPLISTIYASSETQFGLNLNPMCKPEDVSYTFMPNVSYFEFIPVDGDKNNVVDLADVKLGCSYEAVVTNFRIRVGDILVVTGFHNKAPQFRFIRRDNVVLSIDLDKTNEDDLFKAVNRGKLTLDSSDLMLAMLISPLSRDKNKDKKSKKHIELKQETFSECCLLMEDSLDEVYKNCRFKEEWTFDSLMDFFISQGASIGQYKTPRCIKSAKALEVIEKMW
B2: AtGH3-15: GH3 protein, accession CAB87144 (protein, listed as Arabidopsis thaliana)
chain: MLPKFDPTNQKACLSLLEDLTTNVKQIQDSVLEAILSRNAQTEYLRGFLNGQVDKQNFKKNVPVVTYEDIRSYIDRIANGEPSDLICDRPISVLLTSSGTSGGVPKLIPLTTEDLEQRISFSSLYAPLLYKHIDGLSEGKSLIFYFVTRESKTANGDSLQVSPHAITTCADTTQSMYCQLLCGLLERDNVARLGAPFASSFLKVIKFLEDHWPELCSNIRTGRLSDWITDATCTSGIGKFLTAPNPELASLIEQECSKTSWEAILKRLWPKAKCIESIITGTMAQYIPLLEFYSGGLPLTSSFYGSSECFMGVNFNPLCKPSDVSYTIIPCMGYFEFLEVEKDHQEAGHDPTEKPVVVDLVDVKIGHDYEPVVTTFSGLYRYRVGDVLRATGFYNNAPHFCFVGRQKVVLSIDMDKTYEDDLLKAVTNAKLLLEPHDLMLMDFTSRVDSSSFPGHYVIYWELGSKVKDAKFEPNRDVMEECCFTVEESLDAVYRKGRKNDKNIGPLEIKVVKPGAFDELMNFFLSRGSSVSQYKTPRSVTNEEALKILEANVISEFLSRKIPSWELHELHSGR
B3: OsGH3-1: GH3 protein, accession Q8LQM5 (protein, listed as Oryza sativa)
chain: MPEAPTAKTAPAYGYAPGAHAEALEFIEHVTANAGQVQRRVLGEILAQNAPAEYLRRYGIPGSPDVVDAFRRLVPLVTYEGLQPDILRIANGDTSPIFSGKPISEFLTSSGTSGGERKLMPTIADEMNRRSLLYSLLMPVMSQSVSGLDKGKAMYLLFVKAESRTPGGLAARPVLTSYYRSRQFLDRPRDPYTSYTSPDEAILCVDSYQSMYAQLLCGLVHRADVLRVGAVFASGFLRAIHFLEKHWARLCHDIRTGELDPEITDRVVRDAVGRVLRADPALADAIEDECARASWEGIIRRLWPRTKYIDVIVTGTMSQYIPTLEFYGGGLPLTCTMYASSECYFGLNLNPMCKPSDVAYTLIPTMCYYEFLPVNCNNATAEASHRDLVDLVDVKLGHEYELVVTTYSGLYRYRVGDVLRVAGFKNKAPMFSFVRRQNVALSVDSDKTDETELHAAVSGAVQHLAPFGASLVEYTSYADAATIPGHYVLFWELRAGSTAVPASVFEECCLSVEEALNSVYRQGRACDRSIGPLEIRVVAEGTFDKLMDYAISRGASINQYKAPRCVRPGPVVELLDARVQGKYFSPKCPKWSPGNKQWNKSKDLVGKGDA

Key:
[1] = LC-MS assay of GH3 conjugation of IAA with Asp or Glu; format: biochemical; settings: for kcat (hrs−1) IAA-Asp: conjugation of IAA with Asp by recombinant GH3 protein, IAA-Asp product by LC-MS; for kcat (hrs−1) IAA-Glu: conjugation of IAA with Glu by recombinant GH3 protein, IAA-Glu product by LC-MS
Outline: (§1)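 N-terminal His-tagged GH3 homologs, expressed in E. coli C41(DE3) and Ni-NTA purified, at 44 to 164 μg/mL incubated 3 h at 30 °C in 20 mM Tris-HCl pH 8.0, 5 mM MgCl2, 1 mM DTT, 5 mM ATP, 5 mM auxin (IAA, 2,4-D or dicamba) and 5 mM Asp or Glu. Conjugates quantified by LC-MS against standards after MeOH precipitation; kinetics from Michaelis-Menten fits of initial velocities.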

[2] = LC-MS assay of GH3 conjugation of 2,4-D with Asp or Glu; format: biochemical; settings: 5 mM 2,4-D substrate; for kcat (hrs−1) 2,4-D-Asp: conjugation of 2,4-D with Asp by recombinant GH3 protein, 2,4-D-Asp product by LC-MS; for kcat (hrs−1) 2,4-D-Glu: conjugation of 2,4-D with Glu by recombinant GH3 protein, 2,4-D-Glu product by LC-MS
Outline: as §1

Molecule | kcat (hrs−1) IAA-Asp [1] [h⁻¹] | kcat (hrs−1) IAA-Glu [1] [h⁻¹] | kcat (hrs−1) 2,4-D-Asp [2] [h⁻¹] | kcat (hrs−1) 2,4-D-Glu [2] [h⁻¹]
B1 | 0.000 | 0.000 | 0.000 | 0.000
B2 | 0.000 | 0.000 | 0.000 | 0.000
B3 | 633.605 | 33.412 | 0.937 | 0.207
